The results in this text go back to paper PMC10783490, “Biochemical and cellular insights into the Baz2B protein, a non-catalytic subunit of the chromatin remodeling complex” (Nucleic Acids Research, 2023).

What all share (details): protein: recombinant; tags: His6
The target in data set [1] is T1, TAM-AT1-AT2 Baz2B (Homo sapiens, UniProt Q9UIF8 721-884).
T1 sequence: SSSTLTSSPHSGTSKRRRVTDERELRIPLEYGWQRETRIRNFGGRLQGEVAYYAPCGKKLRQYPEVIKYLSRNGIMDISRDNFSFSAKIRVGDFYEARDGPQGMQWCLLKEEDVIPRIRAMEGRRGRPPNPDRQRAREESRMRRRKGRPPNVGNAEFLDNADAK
The data set is described as follows: EMSA; mutant series; EMSA: 20 mM HEPES pH 7.5, 30 mM KCl, 1 mM EDTA, 10 mM (NH4)2SO4, 1 mM DTT, 4 C, 10 nM probe; MST: same plus 0.1 ug/ml BSA, 5 nM probe, 25 C; GST-AT-hook and bromodomain EMSA as in cited refs. On the technique in general: Mobility shift assays separate free from complexed probe on a gel.

In data set [2] the target is T1, TAM-AT1-AT2 Baz2B. The data set is described as follows: MST; EMSA: 20 mM HEPES pH 7.5, 30 mM KCl, 1 mM EDTA, 10 mM (NH4)2SO4, 1 mM DTT, 4 C, 10 nM probe; MST: same plus 0.1 ug/ml BSA, 5 nM probe, 25 C; GST-AT-hook and bromodomain EMSA as in cited refs.
The target of a further data set is T2, TAM-AT1-AT2 Baz2B R837E (Homo sapiens, UniProt Q9UIF8 721-884, R837E).
T2 sequence: T1 sequence with R117E
In words: EMSA; EMSA: 20 mM HEPES pH 7.5, 30 mM KCl, 1 mM EDTA, 10 mM (NH4)2SO4, 1 mM DTT, 4 C, 10 nM probe; MST: same plus 0.1 ug/ml BSA, 5 nM probe, 25 C; GST-AT-hook and bromodomain EMSA as in cited refs.

Data set [3] deals with T1, TAM-AT1-AT2 Baz2B. Described as above.
The next data set addresses T3, TAM-AT1-AT2 Baz2B R760E (Homo sapiens, UniProt Q9UIF8 721-884, R760E).
T3 sequence: T1 sequence with R40E
The description is as above.

The next data set concerns the target T4, TAM-AT1-AT2 Baz2B Q767A (Homo sapiens, UniProt Q9UIF8 721-884, Q767A).
T4 sequence: T1 sequence with Q47A
The description is as above.

The target of a further data set is T5, TAM-AT1-AT2 Baz2B L766A (Homo sapiens, UniProt Q9UIF8 721-884, L766A).
T5 sequence: T1 sequence with L46A
Described as above.

The target in the next data set is T6, TAM-AT1-AT2 Baz2B R765E (Homo sapiens, UniProt Q9UIF8 721-884, R765E).
T6 sequence: T1 sequence with R45E
Described as above.

For a further data set, the target named is T7, TAM-AT1-AT2 Baz2B R781E (Homo sapiens, UniProt Q9UIF8 721-884, R781E).
T7 sequence: T1 sequence with R61E
The description is as above.

Residue numbers refer to the chain shown, from its start.

In general, Kd refers to the concentration at which binding is half-saturated. Consider ATCAGTTCTCCGGGTTGTCAGGTCGACCAGTTGTTCCTTTGAGGT (ssDNA) [45 nt ssDNA FLP015], for which the Kd in the data set with TAM-AT1-AT2 Baz2B [1] was 228 ± 97.8 nM; with TAM-AT1-AT2 Baz2B [2], 160 nM; with TAM-AT1-AT2 Baz2B R837E it was 248 ± 84.2 nM; with TAM-AT1-AT2 Baz2B [3] it was 122 nM; with TAM-AT1-AT2 Baz2B R760E it was 161 ± 44.7 nM; in the data set with TAM-AT1-AT2 Baz2B Q767A it was 206 ± 81 nM. Besides, the dissociation constant (Kd) is 275 ± 82.9 nM with TAM-AT1-AT2 Baz2B L766A, 93.1 ± 13 nM with TAM-AT1-AT2 Baz2B R765E and 220 ± 110 nM with TAM-AT1-AT2 Baz2B R781E.
